Molecular target: myeloperoxidase (MPO), mature form from neutrophils of healthy human donors (human) (UniProt P05164)
Test: native MS; about 3 uM MPO in 150 mM ammonium acetate pH 7.5, direct infusion, Micromass LCT; monomer (light + heavy chain) to dimer

stoichiometry N: 2
Substance: myeloperoxidase (MPO), mature form from neutrophils of healthy human donors (from UniProt P05164 279-745) (enzyme)

— paper PMC6937560
